Positions count from the first letter of the chain named. Names and notes keep the numbering of the source.
T1: human CD19 cell-surface protein (on Raji cells) (human, UniProt P15391 20-556)
T1 construct: whole, on cells; also called hCD19
T1 sequence (looked up): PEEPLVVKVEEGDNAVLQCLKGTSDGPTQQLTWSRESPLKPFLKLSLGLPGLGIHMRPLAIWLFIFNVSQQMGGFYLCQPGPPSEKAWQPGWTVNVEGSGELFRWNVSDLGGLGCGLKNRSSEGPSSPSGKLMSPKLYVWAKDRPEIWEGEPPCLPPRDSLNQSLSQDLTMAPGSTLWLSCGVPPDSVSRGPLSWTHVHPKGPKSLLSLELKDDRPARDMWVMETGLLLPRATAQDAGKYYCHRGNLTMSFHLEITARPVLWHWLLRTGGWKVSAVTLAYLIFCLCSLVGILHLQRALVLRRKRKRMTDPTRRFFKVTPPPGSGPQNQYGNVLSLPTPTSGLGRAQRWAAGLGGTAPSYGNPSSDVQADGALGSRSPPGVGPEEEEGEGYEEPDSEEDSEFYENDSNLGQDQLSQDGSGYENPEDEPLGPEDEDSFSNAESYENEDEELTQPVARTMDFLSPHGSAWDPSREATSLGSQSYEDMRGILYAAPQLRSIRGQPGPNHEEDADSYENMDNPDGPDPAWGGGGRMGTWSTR

B1: anti-hVLA2 antibody (antibody, human IgG1, kappa, V domains shown)
VH: QVQLQESGPGLVKPSETLSLTCTVSGFSLTNYGIHWIRQPPGKGLEWLGVIWARGFTNYNSALMSRLTISKDNSKNQVSLKLSSVTAADTAVYYCARANDGVYYAMDYWGQGTLVTVSS
VL: DFVMTQSPAFLSVTPGEKVTITCSAQSSVNYIHWYQQKPDQAPKKLIYDTSKLASGVPSRFSGSGSGTDYTFTISSLEAEDAATYYCQQWTTNPLTFGQGTKVEIKR
notes: Control with a single specificity, obtained by co-transfection of chain one with chain two of the bispecific antibody
B2: anti-hCD19_anti-hVLA2 bispecific antibody (bispecific antibody, human IgG1, kappa)
heavy 1: QVQLQESGPGLVKPSETLSLTCTVSGFSLTNYGIHWIRQPPGKGLEWLGVIWARGFTNYNSALMSRLTISKDNSKNQVSLKLSSVTAADTAVYYCARANDGVYYAMDYWGQGTLVTVSSASTKGPSVFPLAPSSKSTSGGTAALGCLVKDYFPEPVTVSWNSGALTSGVHTFPAVLQSSGLYSLSSVVTVPSSSLGTQTYICNVNHKPSNTKVDKKVEPKSCDKTHTCPPCPAPELLGGPSVFLFPPKPKDTLMISRTPEVTCVVVDVSHEDPEVKFNWYVDGVEVHNAKTKPREEQYNSTYRVVSVLTVLHQDWLNGKEYKCKVSNKALPAPIEKTISKAKGQPREPQVYTLPPSRDELTKNQVKLVCLVTGFYPSDIAVEWESNGQPENNYYTTPPVLDSDGSFSLVSWLNVDKSRWQQGNVFSCSVMHEALHNHYTQKSLSLSPGKHHHHHH
light 1: DFVMTQSPAFLSVTPGEKVTITCSAQSSVNYIHWYQQKPDQAPKKLIYDTSKLASGVPSRFSGSGSGTDYTFTISSLEAEDAATYYCQQWTTNPLTFGQGTKVEIKRTVAAPSVFIFPPSDEQLKSGTASVVCLLNNFYPREAKVQWKVDNALQSGNSQESVTEQDSKDSTYSLSSTLTLSKADYEKHKVYACEVTHQGLSSPVTKSFNRGEC
heavy 2: QVQLVQSGGGVVQPGRSLRLSCAASGVSLPDYGVSWVRQAPGKGLEWVAVIWGSETTYYNSALKSRFTISRDNSKNTLYLQMNSLRAEDTAVYYCAKHYYYGGSYAMDYWGQGTLVTVSSASTKGPSVFPMAPSSKSTSGGTANLACLVKEYFPEPVTVSWNSGALTSGVFTAPAVLSSSGLYNLVSLVKVPSSSLGTQTYICNVNHKPSNTKVDKKVEPKSCDKTHTCPPCPAPELLGGPSVFLFPPKPKDTLMISRTPEVTCVVVDVSHEDPEVKFNWYVDGVEVHNAKTKPREEQYNSTYRVVSVLTVLHQDWLNGKEYKCKVSNKALPAPIEKTISKAKGQPREPEVATFPPSRDELTKNQVTLVCLVTGFYPSDIAVEWESNGQPENNYKTDPPLLESDGSFALSSRLRVDKSRWQQGNVFSCSVMHEALHNHYTQKSLSLSPGKEQKLISEEDLN
light 2: DIQMTQSPSSLSASVGDRVTITCRASQDISKYLNWYQQKPGKAIKLLIYHTSRLHSGVPSRFSGSGSGTDFTLTISSLQPEDFATYYCQQGATLPYTFGPGTKVDIKRTVAAPKVTIFPPSDEQLKSGTATVLCLLEKFYPREAKVQWKVDNALQSGNSQEGVMEQDSKDSTYMLFSWLTLSKADYEKHKVYACEVTHQGLSSPVTKSFNRGEC
notes: Four distinct chains; also called anti-hCD19_anti-VLA2 bispecific antibody
B3: BT alpha IGHG3 chain (other)
chain: DKTHTCPPCPAPELLGGPSVFLFPPKPKDTLMISRTPEVTCVVVDVSHEDPEVKFNWYVDGVEVHNAKTKPREEQYNSTYRVVSVLTVLHQDWLNGKEYKCKVSNKALPAPIEKTISKAKGQPREPQVYTLPPSREEMTKNQVKLVCLVTGFYPSDIAVEWESSGQPENNYYTTPPMLDSDGSFSLVSWLNVDKSRWQQGNIFSCSVMHEALHNRFTQKSLSLSPGK
B4: Fc (BTA)-F405S-Y407V-K409W-T411N chain (other)
chain: DKTHTCPPCPAPELLGGPSVFLFPPKPKDTLMISRTPEVTCVVVDVSHEDPEVKFNWYVDGVEVHNAKTKPREEQYNSTYRVVSVLTVLHQDWLNGKEYKCKVSNKALPAPIEKTISKAKGQPREPQVYTLPPSRDELTKNQVSLTCLVKGFYPSDIAVEWESNGQPENNYKTTPPVLDSDGSFSLVSWLNVDKSRWQQGNVFSCSVMHEALHNHYTQKSLSLSPGK
notes: Human IGHG1 Fc chain with the named substitutions (EU numbering)
B5: BT delta chain (other)
chain: B4 chain with L131M, S144N, T146A, G151E, K172F, T174A, D179S, S185N, W189L, N191K
B6: Fc IGHAG chain (other)
chain: B4 chain with Q127E, Y129H, K150R, V177R, D179E, S185A, V187T, W189K, N191T
notes: Human IGHG1 Fc chain with CH3 substitutions Q347E, Y349H, K370R, V397R, D399E, F405A, Y407T (EU numbering)
B7: Fc (BTA)-Y407V-K409W-T411N chain (other)
chain: B4 chain with S185F
notes: as for B4
B8: Fc (BTA)-S364K-T366V-K370T-K392Y-K409W-T411N chain (other)
chain: B4 chain with S144K, T146V, K150T, K172Y, S185F, V187Y
notes: as for B4
B9: anti-hCD19 antibody (antibody, human IgG1, V domains shown)
VH: QVQLVQSGGGVVQPGRSLRLSCAASGVSLPDYGVSWVRQAPGKGLEWVAVIWGSETTYYNSALKSRFTISRDNSKNTLYLQMNSLRAEDTAVYYCAKHYYYGGSYAMDYWGQGTLVTVSS
VL: DIQMTQSPSSLSASVGDRVTITCRASQDISKYLNWYQQKPGKAIKLLIYHTSRLHSGVPSRFSGSGSGTDFTLTISSLQPEDFATYYCQQGATLPYTFGPGTKVDIKR
notes: Control with a single specificity, obtained by co-transfection of chain three with chain four of the bispecific antibody

Tests used:
[1] = target: T1, human CD19 cell-surface protein (on …); assay: flow cytometry on Raji cells, detected with mouse anti His tag antibody
[2] = target: T1, human CD19 cell-surface protein (on …); assay: flow cytometry on Raji cells (CD19+ VLA2-), 10 µg/ml, detected by c-myc tag (FIG. 31A) and by His tag (FIG. 31B)
[3] = target: VL-BT beta F405A chain; assay: co-expression in HEK293-EBNA, protein-A purification, non-reducing SDS-PAGE scanning densitometry
[4] = target: T2, VL-Fc (BTB)-F405A-Y407S-K409R-T411R chain; assay: co-expression in HEK293-EBNA, protein-A purification, non-reducing SDS-PAGE scanning densitometry, impurities omitted
T2 construct: Human IGHG1 Fc chain with the named substitutions (EU numbering), fused to a variable light-chain kappa domain antibody

[5] = target: T3, VL-Fc (BTB)-F405A-Y407S chain; assay: as above
T3 construct: Human IGHG1 Fc chain with the named substitutions (EU numbering), fused to a variable light-chain kappa domain antibody

[6] = target: T4, VL-Fc (BTB)-F405A-Y407S-K409R chain; assay: as above
T4 construct: Human IGHG1 Fc chain with the named substitutions (EU numbering), fused to a variable light-chain kappa domain antibody

[7] = target: T5, VL-Fc (BTB)-Y407S-K409R chain; assay: as above
T5 construct: Human IGHG1 Fc chain with the named substitutions (EU numbering), fused to a variable light-chain kappa domain antibody

[8] = target: T6, VL-Fc (BTB)-F405A-K409R chain; assay: as above
T6 construct: Human IGHG1 Fc chain with the named substitutions (EU numbering), fused to a variable light-chain kappa domain antibody

[9] = target: VL-BT gamma chain; assay: co-expression in HEK293-EBNA, protein-A purification, non-reducing SDS-PAGE scanning densitometry
[10] = target: T7, VL-Fc IGHGA chain; assay: as above
T7 construct: Human IGHG1 Fc chain with CH3 substitutions S364T, K392L, T394W, K409I, T411R (EU numbering), fused to VL

[11] = target: T8, VL-Fc (BTB)-K409R-T411R chain; assay: co-expression in HEK293-EBNA, protein-A purification, non-reducing SDS-PAGE scanning densitometry, impurities omitted
T8 construct: Human IGHG1 Fc chain with the named substitutions (EU numbering), fused to a variable light-chain kappa domain antibody

[12] = target: T9, alpha 2 subunit of the human VLA-2 receptor (on HT1080 cells) (human, UniProt P17301 30-1181); assay: flow cytometry on HT1080 cells, detected with mouse anti c-myc tag antibody
T9 construct: whole, on cells; also called hVLA2

Row | hetero-dimer formation percentage [4] | hetero-dimer formation percentage [5] | hetero-dimer formation percentage [6] | hetero-dimer formation percentage [7] | hetero-dimer formation percentage [8] | also measured | Binder
1 |  |  |  |  |  | binding result [1]: no binding | B1
2 |  |  |  |  |  | binding result [2]: binds | B2
3 |  |  |  |  |  | hetero-dimer percent of the protein-A purified material [3]: ≥ 91% | B3
4 | 9% | 7% | 15% | 5% | 4% |  | B4
5 |  |  |  |  |  | hetero-dimer percent of the protein-A purified material [9]: ≥ 52.1% | B5
6 |  |  |  |  |  | hetero-dimer percent of the protein-A purified material [10]: ≥ 54% | B6
7 | 53% | 50% | 52% | 25% | 25% |  | B7
8 | 88% | 90% | 72% | 74% | 60% | hetero-dimer formation percentage [11]: 32% | B8
9 |  |  |  |  |  | binding result [12]: no binding | B9

Source: patent US20130178605A1 (GLENMARK PHARMACEUTICALS S A, published 2013)
